Results published in US20240158497A1 (published 2024).

T1: human gp130 expressed endogenously on IMR-32/Stat3-luc cells (human, UniProt P40189 23-918)
T1 construct: Endogenous gp130 of the human neuroblastoma line IMR-32
T1 sequence: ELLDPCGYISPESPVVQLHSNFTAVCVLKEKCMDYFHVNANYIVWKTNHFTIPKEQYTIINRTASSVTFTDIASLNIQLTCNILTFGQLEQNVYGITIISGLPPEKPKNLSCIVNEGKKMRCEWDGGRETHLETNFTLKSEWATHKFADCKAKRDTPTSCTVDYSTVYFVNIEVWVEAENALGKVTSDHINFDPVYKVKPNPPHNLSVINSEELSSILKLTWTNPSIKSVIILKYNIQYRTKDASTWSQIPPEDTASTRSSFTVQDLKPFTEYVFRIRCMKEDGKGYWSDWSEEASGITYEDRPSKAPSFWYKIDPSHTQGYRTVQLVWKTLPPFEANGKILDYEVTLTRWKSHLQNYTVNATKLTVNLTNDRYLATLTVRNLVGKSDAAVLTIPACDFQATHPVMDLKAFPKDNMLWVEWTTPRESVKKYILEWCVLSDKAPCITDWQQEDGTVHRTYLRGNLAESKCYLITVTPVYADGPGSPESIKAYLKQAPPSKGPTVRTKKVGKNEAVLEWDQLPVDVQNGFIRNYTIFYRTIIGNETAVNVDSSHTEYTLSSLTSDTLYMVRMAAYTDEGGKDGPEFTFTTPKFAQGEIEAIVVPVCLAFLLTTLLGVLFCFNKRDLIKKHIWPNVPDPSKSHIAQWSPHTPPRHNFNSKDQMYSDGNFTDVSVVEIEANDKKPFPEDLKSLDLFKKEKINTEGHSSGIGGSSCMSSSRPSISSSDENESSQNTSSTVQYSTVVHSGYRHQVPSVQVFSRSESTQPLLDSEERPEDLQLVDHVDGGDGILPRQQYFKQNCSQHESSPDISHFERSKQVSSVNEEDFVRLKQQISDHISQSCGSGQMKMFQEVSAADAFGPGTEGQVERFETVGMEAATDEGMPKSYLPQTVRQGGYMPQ

T2: full length (FL) human gp130 over-expressed on HEK293/Stat3-luc/gp130-2X Sort cells (human, UniProt P40189 23-918)
T2 sequence: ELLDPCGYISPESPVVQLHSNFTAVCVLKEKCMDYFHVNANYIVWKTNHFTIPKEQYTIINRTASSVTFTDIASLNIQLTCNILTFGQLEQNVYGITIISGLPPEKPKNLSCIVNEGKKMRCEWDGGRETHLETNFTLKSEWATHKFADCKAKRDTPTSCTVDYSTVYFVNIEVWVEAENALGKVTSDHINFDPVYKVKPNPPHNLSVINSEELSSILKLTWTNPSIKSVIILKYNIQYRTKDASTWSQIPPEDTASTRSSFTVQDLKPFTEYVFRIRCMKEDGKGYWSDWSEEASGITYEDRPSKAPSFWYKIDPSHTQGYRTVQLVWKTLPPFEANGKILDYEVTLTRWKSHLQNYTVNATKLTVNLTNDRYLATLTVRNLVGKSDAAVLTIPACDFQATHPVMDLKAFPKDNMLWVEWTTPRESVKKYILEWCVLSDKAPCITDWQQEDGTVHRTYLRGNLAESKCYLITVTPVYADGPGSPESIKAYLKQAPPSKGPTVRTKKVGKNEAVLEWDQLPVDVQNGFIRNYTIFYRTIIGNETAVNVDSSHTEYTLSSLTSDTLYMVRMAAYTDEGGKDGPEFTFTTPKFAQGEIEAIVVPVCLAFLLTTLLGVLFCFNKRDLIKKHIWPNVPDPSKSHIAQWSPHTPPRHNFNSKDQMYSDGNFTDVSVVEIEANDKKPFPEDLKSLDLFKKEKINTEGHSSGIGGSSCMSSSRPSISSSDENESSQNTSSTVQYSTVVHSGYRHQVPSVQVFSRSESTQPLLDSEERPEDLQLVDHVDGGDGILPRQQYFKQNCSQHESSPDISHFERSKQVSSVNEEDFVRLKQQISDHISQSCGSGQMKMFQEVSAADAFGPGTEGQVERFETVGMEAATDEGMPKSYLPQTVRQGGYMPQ


Legend:
[1] = biological target: T1, human gp130 expressed endogenously on …; assay: FACS, 10 nM Ab pre-bound to 1 uM hGP130.mmh, IMR-32/Stat3-luc cells
From the text: (§1) In order to assess cell binding by anti-GP130 antibodies of the invention two cell lines were generated. One cell line generated was HEK293 cells stably over-expressing full length (FL) human gp130 (amino acids 1-918 of accession #P40189 with leucine at position 2 changed to valine, a natural variant) along with a luciferase reporter (Stat3-luciferase, Stat3-luc, SA Bioscience, #CLS-6028L). The cells were sorted twice using flow cytometry for high expression of gp130. It is known hereafter as HEK293/Stat3-luc/gp130-2 X Sort. IMR-32 cells (human Neuroblastoma, ATCC), were also evaluated for cell binding as these cells express gp130 endogenously and were used for bioassays. The cells used for binding were generated to stably express a luciferase reporter (Stat3-luciferase, Stat3-luc, SA Bioscience, #CLS-6028L), and are referred to hereafter as IMR-32/STAT3-Luc cells.
(§2) For the FACS analysis, 10 nM of the antibodies were used to stain 0.5×10⁶ cells/well of each cell type at 4° C. in PBS (without calcium and magnesium) containing 2% FBS for 30 minutes. IMR-32/STAT3-luc cells were incubated with 1 mg/mL mouse IgG for 30 minutes at 4° C. to block Fc receptors prior to adding the antibodies. To test whether the anti-gp130 antibody binding is specific for gp130 on the IMR-32 cells, antibodies were added to IMR-32/Stat3-luc cells with or without being pre-bound to 1000 nM of recombinant protein of the ecto-domain of human gp130 fused to myc-myc-his tag (hgp130.mmh) for 30 minutes at 25° C. […] Cells were fixed using BD CytoFix™ (Becton Dickinson, #554655) and analyzed on an IQue® (Intellicyt®) Flow Cytometer. Unstained and secondary antibody alone controls were also tested for all cell lines. The results were analyzed using ForeCyt® (IntelliCyt®) software to determine the geometric means of fluorescence for viable cells.

[2] = biological target: T1, human gp130 expressed endogenously on …; assay: FACS, 10 nM Ab, IMR-32/Stat3-luc cells, no hGP130.mmh
From the text: as §1, §2

[3] = biological target: T1, human gp130 expressed endogenously on …; assay: cell-based or functional assay
[4] = biological target: T2, full length (FL) human gp130 …; assay: FACS, 10 nM Ab, HEK293/Stat3-luc/gp130-2X Sort cells
From the text: as §1, §2

MFI - Normalized to Unstained Control [1]	MFI - Normalized to Unstained Control [2]	% inhibition; CNTF (20 pM) [3]	% inhibition; LIF (20 pM) [3]	% inhibition; OSM (100 pM) [3]	IC50 [M]; CNTF (20 pM) [3]	IC50 [M]; LIF (20 pM) [3]	IC50 [M]; OSM (100 pM) [3]	MFI - Normalized to Unstained Control [4]	Binder
5 ratio	6 ratio	–	–	–	–	–	–	53 ratio	MAb16669 (antibody, V domains shown, hIgG4 isotype control used) VH: EVQLVESGGGLVQPGGSLRLSCAASGFTFSSYAMNWVRQAPGKGLEWVSAISGSGDSTYYTDSVKGRFTISRDNSKNTLYLQMNTLRAEDTAVYYCAKEEIVMLVGATPGWFDPWGQGTLVTVSS VL: not shown
8 ratio	23 ratio	95%	–	–	7.1e-10 M	–	–	159 ratio	MAb16666 (antibody, V domains shown, hIgG4 isotype control used) VH: EVQLVESGGGLVQSGGSLRLSCAASGFTFSRYEMNWVRQAPGKGLEWVAYISNTGTTRDYSDSVKGRFTISRDNAKNSLYLQMSSLRVEDTAVYYCVREKFSGTSDWFDPWGQGTLVTVSS VL: not shown
8 ratio	7 ratio	–	–	–	–	–	–	45 ratio	MAb16664 (antibody, V domains shown, hIgG4 isotype control used) VH: QVQLVQSGTEVKKPGSSVKVSCKASGGTFSTYPINWVRQAPGQGLEWMGGIIPIFGTASYAQKFQGRVAITTDESTSTAYMELNSLRSEDTAVYYCARERPNWGSNDYWGQGTLVTVSS VL: not shown
7 ratio	9 ratio	–	–	–	–	–	–	75 ratio	MAb16683 (antibody, V domains shown, hIgG4 isotype control used) VH: QVQLVESGGGLVKPGGSLRLSCAASGFTFSDYYMTWIRQTPGKGLDWVSYISSSGTNKYNADSVKGRFTISRDNAKNSLYLQMNSLRAEDTAVYYCVRDPPWGMDVWGQGTTVTVSS VL: not shown
6 ratio	5 ratio	–	–	–	–	–	–	49 ratio	MAb16662 (antibody, V domains shown, hIgG4 isotype control used) VH: EVQLVESGGGLVQPGGSLRLSCTASGFTFSNYAIFWVRQAPGKGLEYVSGISNNGVTKYYADSVRDRFTISRDNSRNTVSIQMDSLRTEDMAVYYCARENWGSDDGFDIWGQGTMVTVSS VL: not shown
8 ratio	6 ratio	–	–	23%	–	–	> 1e-07 M	80 ratio	MAb16682 (antibody, V domains shown, hIgG4 isotype control used) VH: EVQLVESGGGLVQPGGSLRLSCAASGFTFSTYWMNWVRQAPGKGLEWVANIKEDGSEKYYVDSVKGRFTISRDNAKNSLYLQMNSLRAEDTAVYYCAREGFGVVTYIWGQGTMVTVSS VL: not shown
6 ratio	5 ratio	–	–	–	–	–	–	55 ratio	MAb16665 (antibody, V domains shown, hIgG4 isotype control used) VH: QVQLVESGGGVVQPGRSLRLACAASGFTFRSYGMHWVRQAPGKGLEWVAVIWYDGSNKYYTDSVKGRFTISRDNSKNTLYLQMNSLRAEDTAMYYCAIDKWATVTTYLFDYWGQGTLVTVSS VL: not shown
8 ratio	9 ratio	–	–	–	–	–	–	74 ratio	MAb16676 (antibody, V domains shown, hIgG4 isotype control used) VH: QVQLVQSGAEVMKPGASVKVSCRASGYTFSSYDINWVRQAPGQGLEWMGWISTATGNTNYPQKVQGRVTMTTDTSTNTAYMELRSLRSDDTAVYYCTREGNSKGWLDPWGQGTLVTVSS VL: not shown

More lines, now with the values behind:

Binder	MFI - Normalized to Unstained Control [1]	MFI - Normalized to Unstained Control [2]	% inhibition; CNTF (20 pM) [3]	% inhibition; LIF (20 pM) [3]	% inhibition; OSM (100 pM) [3]	IC50 [M]; CNTF (20 pM) [3]	IC50 [M]; LIF (20 pM) [3]	IC50 [M]; OSM (100 pM) [3]	MFI - Normalized to Unstained Control [4]
MAb16636 (antibody, V domains shown, hIgG4 isotype control used) VH: QLQLQESGPGLVKPSETLSLICTVSGGSISSNNYYWGWIRQPPGKGLEWIGNLYGSGSTYYNPSLKSRVTISVDTSKNQFSLKLSFVTAADTAVYHCARWDTNGGAFDIWGQGTMVTVSS VL: not shown	7 ratio	8 ratio	62%	76%	82%	> 1e-08 M	> 1e-08 M	> 1e-08 M	92 ratio
MAb16659 (antibody, V domains shown, hIgG4 isotype control used) VH: QVQLVQSGPEVKKPGSSVKVSCKASGGTIDRNEITWVRQAPGQGLEWMGVIIPILGEAHYERKFQGRLTITMDESTSTAYMELSNLRSEDTAVYYCARERAARGYLDYWGQGTLVTVSS VL: not shown	8 ratio	8 ratio	–	–	–	–	–	–	81 ratio
MAb16623 (antibody, V domains shown, hIgG4 isotype control used) VH: EVQLVESGGGLVQPGGSLRLSCAASGLTFSSYEMNWVRQAPGKGLEWVSHISSAGSTKYYADSVKGRFTISRDNAKNSLFLQMNSLRAEDTAIYYCAGYNYAYYYFGVDVWGQGTTVTVSS VL: not shown	7 ratio	8 ratio	22%	–	–	> 1e-07 M	–	–	96 ratio
MAb16618 (antibody, V domains shown, hIgG4 isotype control used) VH: QVQLQESGPGLVKPSETLSLTCTVSGGSISNYYWTWIRQPPGKGLEWIGHISNSGTTNYNPSLKSRVTISVDTSKNQFSLKLTSVTAADTAVYYCARLPLGIAAVDTDYYYYFGMDVWGQGTTVTVSS VL: not shown	8 ratio	7 ratio	33%	40%	52%	> 1e-07 M	> 1e-07 M	> 5e-08 M	105 ratio
MAb16637 (antibody, V domains shown, hIgG4 isotype control used) VH: QVQLVQSGAEVKKPGASVKVSCKASGYTFTSLGISWVRQAPGQGLEWMGWISAYSGNRDYAQKFQGRVTMTTDTSTSTAYMELRSLRSDDTAVYYCARSLRFDYWGQGTLVTVSS VL: not shown	7 ratio	9 ratio	–	–	–	–	–	–	121 ratio
MAb16622 (antibody, V domains shown, hIgG4 isotype control used) VH: EVQLVESGGGVVRPGGSLRLSCTASGFTFDDYGMSWVRQAPGKGLEWVSGINWNGGRTEYADAVKGRFIISRDNAKNSLYLQMNSLRAEDTALYFCARTELRWDYWGQGTLVTVSS VL: not shown	7 ratio	5 ratio	–	–	–	–	–	–	91 ratio
MAb16656 (antibody, V domains shown, hIgG4 isotype control used) VH: EVQLVESGGGLVQPGRSLRLSCAASGFTLDDFAMHWVRQAPGKGLEWVSGISWNSGNIGYADSVKGRFTISRDNARNSLYLQMNSLRAEDTALYYCTSGYYLYYAMDVWGQGTTVTVSS VL: not shown	7 ratio	12 ratio	–	–	–	–	–	–	132 ratio
MAb16614 (antibody, V domains shown, hIgG4 isotype control used) VH: QVQLVESGGGVVQPGGSLRLSCAASGFTFSTYDIHWVRQAPGKGLEWVAVISFDGSNRNYGDSVKGRFTISRDNSDNTLFLEMNNLRFEDTAVYYCAKEGYGVDFQHWGQGTLVTVSS VL: not shown	6 ratio	7 ratio	–	–	–	–	–	–	94 ratio
